According to IntAct's records for PubMed 29039417:

B1: BBSome complex member BBS4 (Homo sapiens), Q96RK4 (parent)
chain: MAEERVATRTQFPVSTESQKPRQKKAPEFPILEKQNWLIHLHYIRKDYEACKAVIKEQLQETQGLCEYAIYVQALIFRLEGNIQESLELFQTCAVLSPQSADNLKQVARSLFLLGKHKAAIEVYNEAAKLNQKDWEISHNLGVCYIYLKQFNKAQDQLHNALNLNRHDLTYIMLGKIHLLEGDLDKAIEVYKKAVEFSPENTELLTTLGLLYLQLGIYQKAFEHLGNALTYDPTNYKAILAAGSMMQTHGDFDVALTKYRVVACAVPESPPLWNNIGMCFFGKKKYVAAISCLKRANYLAPFDWKILYNLGLVHLTMQQYASAFHFLSAAINFQPKMGELYMLLAVALTNLEDIENAKRAYAEAVHLDKCNPLVNLNYAVLLYNQGEKKNALAQYQEMEKKVSLLKDNSSLEFDSEMVEMAQKLGAALQVGEALVWTKPVKDPKSKHQTTSTSKPASFQQPLGSNQALGQAMSSAAAYRTLPSGAGGTSQFTKPPSLPLEPEPAVESSPTETSEQIREK
partner: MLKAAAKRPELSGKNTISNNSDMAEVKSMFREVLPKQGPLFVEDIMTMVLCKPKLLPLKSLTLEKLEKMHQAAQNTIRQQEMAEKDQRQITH

Variants of: B1
Conditions: with bbip1_human BBIP1, A8MTZ0

Variant | effect of a mutation on the interaction
MAEERVATRTQFPVSTESQKPRQKKAPEFPILEKQNWLIHLHYIRKDYEACKAVIKEQLQETQGLCEYAIYVQALIFRLEGNIQESLELFQTCAVLSPQSADNLKQVARSLFLLGKHKAAIEVYNEAAKLNQKDWEISHNLGVCYIYLKQFNKAQDQLHNALNLNRHDLTYIMLGKIHLLEGDLDKAIEVYKKAVEFSPENTELLTTLGLLYLQLGIYQKAFEHLGNALTYDPTNYKAILAAGSMMQTHGDFDVALTKYRVVACAVPESPPLWNNIGMCFFGKKKYVAAISCLKRANYLAPFDWKILYNLGLVHLTMQQYASAFHFLSAAINFQPKMGEKYMLLAVALTNLEDIENAKRAYAEAVHLDKCNPLVNLNYAVLLYNQGEKKNALAQYQEMEKKVSLLKDNSSLEFDSEMVEMAQKLGAALQVGEALVWTKPVKDPKSKHQTTSTSKPASFQQPLGSNQALGQAMSSAAAYRTLPSGAGGTSQFTKPPSLPLEPEPAVESSPTETSEQIREK [L340K] | with no effect
MAEERVATRTQFPVSTESQKPRQKKAPEFPILEKQNWLIHLHYIRKDYEACKAVIKEQLQETQGLCEYAIYVQALIFRLEGNIQESLELFQTCAVLSPQSADNLKQVARSLFLLGKHKAAIEVYNEAAKLNQKDWEISHNLGVCYIYLKQFNKAQDQLHNALNLNRHDLTYIMLGKIHLLEGDLDKAIEVYKKAVEFSPENTELLTTLGLLYLQLGIYQKAFEHLGNALTYDPTNYKAILAAGSMMQTHGDFDVALTKYRVVACAVPESPPLWNNIGMCFFGKKKYVAAISCLKRANYLAPFDWKILYNLGLVHLTMQQYASAFHFLSAAINFQPKMGEFYMLLAVALTNLEDIENAKRAYAEAVHLDKCNPLVNLNYAVLLYNQGEKKNALAQYQEMEKKVSLLKDNSSLEFDSEMVEMAQKLGAALQVGEALVWTKPVKDPKSKHQTTSTSKPASFQQPLGSNQALGQAMSSAAAYRTLPSGAGGTSQFTKPPSLPLEPEPAVESSPTETSEQIREK [L340F] | disrupting interaction strength
MAEERVATRTQFPVSTESQKPRQKKAPEFPILEKQNWLIHLHYIRKDYEACKAVIKEQLQETQGLCEYAIYVQALIFRLEGNIQESLELFQTCAVLSPQSADNLKQVARSLFLLGKHKAAIEVYNEAAKLNQKDWEISHNLGVCYIYLKQFNKAQDQLHNALNLNRHDLTYIMLGKIHLLEGDLDKAIEVYKKAVEFSPENTELLTTLGLLYLQLGIYQKAFEHLGNALTYDPTNYKAILAAGSMMQTHGDFDVALTKYRVVACAVPESPPLWNNIGMCFFGKKKYVAAISCLKRANYLAPFDWKILYNLGLVHLTMQQYASAFHFLSAAINFQPKMGELAMLLAVALTNLEDIENAKRAYAEAVHLDKCNPLVNLNYAVLLYNQGEKKNALAQYQEMEKKVSLLKDNSSLEFDSEMVEMAQKLGAALQVGEALVWTKPVKDPKSKHQTTSTSKPASFQQPLGSNQALGQAMSSAAAYRTLPSGAGGTSQFTKPPSLPLEPEPAVESSPTETSEQIREK [Y341A] | disrupting interaction strength
MAEERVATRTQFPVSTESQKPRQKKAPEFPILEKQNWLIHLHYIRKDYEACKAVIKEQLQETQGLCEYAIYVQALIFRLEGNIQESLELFQTCAVLSPQSADNLKQVARSLFLLGKHKAAIEVYNEAAKLNQKDWEISHNLGVCYIYLKQFNKAQDQLHNALNLNRHDLTYIMLGKIHLLEGDLDKAIEVYKKAVEFSPENTELLTTLGLLYLQLGIYQKAFEHLGNALTYDPTNYKAILAAGSMMQTHGDFDVALTKYRVVACAVPESPPLWNNIGMCFFGKKKYVAAISCLKRANYLAPFDWKILYNLGLVHLTMQQYASAFHFLSAAINFQPKMGELCMLLAVALTNLEDIENAKRAYAEAVHLDKCNPLVNLNYAVLLYNQGEKKNALAQYQEMEKKVSLLKDNSSLEFDSEMVEMAQKLGAALQVGEALVWTKPVKDPKSKHQTTSTSKPASFQQPLGSNQALGQAMSSAAAYRTLPSGAGGTSQFTKPPSLPLEPEPAVESSPTETSEQIREK [Y341C] | disrupting interaction strength

Second part, the variant after the results:

effect of a mutation on the interaction | Variant
disrupting interaction strength | MAEERVATRTQFPVSTESQKPRQKKAPEFPILEKQNWLIHLHYIRKDYEACKAVIKEQLQETQGLCEYAIYVQALIFRLEGNIQESLELFQTCAVLSPQSADNLKQVARSLFLLGKHKAAIEVYNEAAKLNQKDWEISHNLGVCYIYLKQFNKAQDQLHNALNLNRHDLTYIMLGKIHLLEGDLDKAIEVYKKAVEFSPENTELLTTLGLLYLQLGIYQKAFEHLGNALTYDPTNYKAILAAGSMMQTHGDFDVALTKYRVVACAVPESPPLWNNIGMCFFGKKKYVAAISCLKRANYLAPFDWKILYNLGLVHLTMQQYASAFHFLSAAINFQPKMGELDMLLAVALTNLEDIENAKRAYAEAVHLDKCNPLVNLNYAVLLYNQGEKKNALAQYQEMEKKVSLLKDNSSLEFDSEMVEMAQKLGAALQVGEALVWTKPVKDPKSKHQTTSTSKPASFQQPLGSNQALGQAMSSAAAYRTLPSGAGGTSQFTKPPSLPLEPEPAVESSPTETSEQIREK [Y341D]
with no effect | MAEERVATRTQFPVSTESQKPRQKKAPEFPILEKQNWLIHLHYIRKDYEACKAVIKEQLQETQGLCEYAIYVQALIFRLEGNIQESLELFQTCAVLSPQSADNLKQVARSLFLLGKHKAAIEVYNEAAKLNQKDWEISHNLGVCYIYLKQFNKAQDQLHNALNLNRHDLTYIMLGKIHLLEGDLDKAIEVYKKAVEFSPENTELLTTLGLLYLQLGIYQKAFEHLGNALTYDPTNYKAILAAGSMMQTHGDFDVALTKYRVVACAVPESPPLWNNIGMCFFGKKKYVAAISCLKRANYLAPFDWKILYNLGLVHLTMQQYASAFHFLSAAINFQPKMGELEMLLAVALTNLEDIENAKRAYAEAVHLDKCNPLVNLNYAVLLYNQGEKKNALAQYQEMEKKVSLLKDNSSLEFDSEMVEMAQKLGAALQVGEALVWTKPVKDPKSKHQTTSTSKPASFQQPLGSNQALGQAMSSAAAYRTLPSGAGGTSQFTKPPSLPLEPEPAVESSPTETSEQIREK [Y341E]
